Data from patent publication US20250049939A1, “NOVEL FLT3 ANTIBODIES AND ANTIBODY-DRUG-CONJUGATES BASED THEREON, THERAPEUTIC METHODS AND USES THEREOF IN COMBINATION WITH TYROSINE KINASE INHIBITORS” (TUBULIS GmbH, priority 2021, published 2025).

Target: human CD64 (high affinity Fc receptor, FCGR1) on cells (human) (UniProt P12314)
Assay: cell-based or functional assay

Sequence of human CD64 (high affinity Fc receptor, FCGR1) on cells (human) (P12314 16-374): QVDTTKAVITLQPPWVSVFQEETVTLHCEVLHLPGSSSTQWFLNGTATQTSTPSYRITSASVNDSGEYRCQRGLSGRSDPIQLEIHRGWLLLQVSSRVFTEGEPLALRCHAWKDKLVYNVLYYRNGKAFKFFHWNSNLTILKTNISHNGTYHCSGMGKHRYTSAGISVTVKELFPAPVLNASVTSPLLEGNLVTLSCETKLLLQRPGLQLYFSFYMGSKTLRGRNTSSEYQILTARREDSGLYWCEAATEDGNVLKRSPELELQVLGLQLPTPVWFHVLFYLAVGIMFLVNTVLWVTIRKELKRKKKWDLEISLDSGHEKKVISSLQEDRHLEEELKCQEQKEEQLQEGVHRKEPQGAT

Substance “IgG1-ADC (palivizumab conjugated to MMAF) (antibody)” has an IC50 of cytotoxicity in Ba/F3-pMIY-CD64 cells of 31.8 ng/ml, an IC50 of cytotoxicity in Ba/F3 cells expressing both FLT3 and CD64 of 0.0783 µg/mL and an IC50 of cytotoxicity in CD64 positive leukemia and lymphoma cell lines of 0.0128 to 2 µg/mL.
